Laboratory results: patent US7291332B2, “Inflammatory mediator antagonists” (SmithKline Beecham Corporation, priority 1998, dated 2007)
“Also recorded” adds a separate entry of the source.

T1: gp130-Fc (Homo sapiens, UniProt P40189)
T1 construct: DNA encoding the extracellular domain of human gp130 was amplified; made in house; host or cells: insect cells (Bac-to-Bac baculovirus) for gp130-Fc; E. coli BLR-DE3 for OSM
T1 sequence (P40189 23-619 limits assumed): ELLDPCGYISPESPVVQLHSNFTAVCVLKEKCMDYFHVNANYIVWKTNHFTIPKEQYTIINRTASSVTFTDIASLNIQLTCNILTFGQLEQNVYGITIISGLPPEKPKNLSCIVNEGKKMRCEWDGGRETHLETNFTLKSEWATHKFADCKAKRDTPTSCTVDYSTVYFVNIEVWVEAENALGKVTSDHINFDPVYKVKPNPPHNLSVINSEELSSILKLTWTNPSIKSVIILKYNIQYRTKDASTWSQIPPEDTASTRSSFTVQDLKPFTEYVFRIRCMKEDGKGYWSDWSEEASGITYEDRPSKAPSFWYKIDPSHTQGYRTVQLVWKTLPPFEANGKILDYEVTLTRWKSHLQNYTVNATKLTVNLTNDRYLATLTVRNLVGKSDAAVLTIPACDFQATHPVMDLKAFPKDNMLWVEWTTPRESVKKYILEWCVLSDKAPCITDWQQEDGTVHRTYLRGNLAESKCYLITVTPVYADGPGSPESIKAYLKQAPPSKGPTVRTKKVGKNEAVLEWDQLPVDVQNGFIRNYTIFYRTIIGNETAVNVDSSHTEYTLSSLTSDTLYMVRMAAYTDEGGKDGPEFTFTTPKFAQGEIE


Key:
[1] = tested on: HepG2 B6 cells (STAT-sPAP reporter); assay: OSM-GST mutant driven sPAP production in HepG2 B6 assay; type: cell-based, human; conditions: for 'Potency': relative to wild type, from Mean %
Protocol: HepG2 B6 cells were plated into 96 well plates to a final concentration of 3×10^4 cells per well in 100 μl of media (DMEM (Sigma), 10% HI FCS, 1% non-essential amino acids, 2 mM Glutamine, 500 μg ml^−1 G418, (all from Life Technologies)). Cells were allowed to equilibrate for 48 hours. Putative anti-OSM solid compounds were made up to a stock dilution of 20 mM in DMSO and serially diluted 1:3 in DMSO. This was then further diluted in HepG26B assay media, this is as above media but with 1% heat inactivated FCS, low alkaline phosphatase activity (Life Technologies) substituted for 10% HI FCS. Compounds were diluted 1:3 from a top concentration of […] to a final concentration of 0.09 μM in a final concentration of 1% DMSO. (That is 200, 66.67, 22.22, 7.41, 2.47, 0.82, 0.27, 0.09 and 0 μM). The old media was removed from the wells and replaced with diluted compound also containing 2 ng ml^−1 OSM (R&D Systems), cells were incubated for a further 20 hours. Each dilution was performed in triplicate. 20 μl of media was removed from each well and assayed for sPAP activity using pNPP (p-Nitrophenyl phosphate; Sigma), as a substrate. Endogenous alkaline phosphatase is blocked with L-homoarginine. Optical density of substrate is read at 405-650 nm. Concentration of compound is plotted against OD as a measure of sPAP produced and can be analysed to determine IC50 values.
The assay described in Example 7b above was employed. OSM-GST mutants were diluted to a concentration of 100 ng ml^−using the known concentration of intact OSM mutants generated in Example 9b. A wild type OSM-GST was included for control purposes. Dilutions were made in HepG2 B6 media with 1% heat inactivated FCS, low alkaline phosphatase activity. Serial 1:3 dilutions were then made. (100; 33.33; 11.11; 3.7; 1.23; 0.4 ng ml^−1). 3×10^4 HepG2 B6 were dispensed into individual well of a 96 well plate in 100 μl of media. Cells were allowed to equilibrate for 48 hours. Media was then removed and replaced with 100 μl of diluted OSM-GST mutant. Cells were incubated for a further 20 hours. Each dilution was performed in triplicate. 20 μl of media was removed and assayed for sPAP using pNPP as a substrate. Endogenous ALP was blocked with L-homoarginine. O.D. was read at 405-650 nm. The experiment was repeated twice.

gp130-Fc = molecular target: T1, gp130-Fc; assay: Competition of OSM-GST with plate-bound wild type OSM for binding to gp130-Fc (ELISA); conditions: for inhibition: at the maximum concentration tested (10 μg/ml)
Protocol: Nunc Immunoplates (F6 Maxisorp, Life Technologies) were coated overnight (4° C.) with wild type OSM (produced according to Example 7a); 50 μl/well, 1 μg/ml in carbonate/bicarbonate buffer pH 9.4). Plates were washed (×6 in PBS 0.05% tween 20, using Skatron Plate washer), tapped dry and blocked to reduce non-specific binding (200 μl/well, 1% BSA/PBS). Following 1 h incubation (room temperature on a shaking platform) the plates were tapped dry and wild type (wt) or mutant OSM-GST from Example 9b added (50 μl/well, 20-0.002 μg/ml, titrated in 1%BSA/PBS). As a positive control polyclonal anti-human OSM antibody (R&D Systems) was also tested (20-0.02 μg/ml). A complex of gp130-Fc (Produced as below 300 ng/ml) and anti-human IgG alkaline phosphatase conjugate (1:500, Sigma) in 1% BSA/PBS (50 μl/well) was added immediately after the agents under test. Following a 5 h incubation (room temperature on a shaking platform) the plates were washed (×6) and developed using ELISA Amplification System (Life Technologies) as manufacturer's instructions and the OD measured at 490 nm. On each plate the total binding was determined by gp130-Fc/conjugate and OSM in the presence of 1% BSA/PBS, and non-specific binding by gp130-Fc/conjugate in absence of OSM, or conjugate binding to OSM in absence of gp130-Fc.
Mutant and wt OSM-GST were tested to obtain IC50 in 3-6 experiments. The mean OD in the presence of OSM and gp130-Fc in the absence of competing ligand (i.e., total binding) was 1.157 (range 0.825-1.807) and the non specific binding was less than 0.08.

| ability to compete with wt OSM for gp130 binding (gp130-Fc) | inhibition (gp130-Fc) [%] | Expt 1 EC50 [1] [µg/mL] | Expt 2 EC50 [1] [µg/mL] | Molecule | driving sPAP production [1] | 'Potency' [1] |
| --- | --- | --- | --- | --- | --- | --- |
| substantial decrease | – | 0.0302 | 0.0362 | (23) N124A: OSM-GST fusion, alanine for Asn 124 (protein, left off: a dimerising Fc or GST; large carriers; small tags and cut ends) AAIGSCSKEYRVLLGQLQKQTDLMQDTSRLLDPYIRIQGLDVPKLREHCRERPGAFPSEETLRGLGRRGFLQTLNATLGCVLHRLADLEQRLPKAQDLERSGLNIEDLEKLQMARPNILGLRNAIYCMAQLLDNSDTAEPTKAGRGASQPPTPTPASDAFQRKLEGCRFLHGYHRFMHSVGRVFSKWGESPNRSRR | – | EQUAL (80-120% Equal potency) |
| substantial decrease | – | – | – | (20) G120A: OSM-GST fusion, alanine for Gly 120 (protein, left off: a dimerising Fc or GST; large carriers; small tags and cut ends) AAIGSCSKEYRVLLGQLQKQTDLMQDTSRLLDPYIRIQGLDVPKLREHCRERPGAFPSEETLRGLGRRGFLQTLNATLGCVLHRLADLEQRLPKAQDLERSGLNIEDLEKLQMARPNILALRNNIYCMAQLLDNSDTAEPTKAGRGASQPPTPTPASDAFQRKLEGCRFLHGYHRFMHSVGRVFSKWGESPNRSRR | less effective at driving sPAP production; also recorded: didn't drive sPAP at all | NONE |
| substantial decrease | – | 0.0379 | 0.0497 | (22) N123A: OSM-GST fusion, alanine for Asn 123 (protein, left off: a dimerising Fc or GST; large carriers; small tags and cut ends) AAIGSCSKEYRVLLGQLQKQTDLMQDTSRLLDPYIRIQGLDVPKLREHCRERPGAFPSEETLRGLGRRGFLQTLNATLGCVLHRLADLEQRLPKAQDLERSGLNIEDLEKLQMARPNILGLRANIYCMAQLLDNSDTAEPTKAGRGASQPPTPTPASDAFQRKLEGCRFLHGYHRFMHSVGRVFSKWGESPNRSRR | – | LESS (>120% Less potent than wild type) |

More lines, now with the values behind:

| Molecule | ability to compete with wt OSM for gp130 binding (gp130-Fc) | inhibition (gp130-Fc) [%] | Expt 1 EC50 [1] [µg/mL] | Expt 2 EC50 [1] [µg/mL] | driving sPAP production [1] | 'Potency' [1] |
| --- | --- | --- | --- | --- | --- | --- |
| (13) Q20A: OSM-GST fusion, alanine for Gln 20 (protein, left off: a dimerising Fc or GST; large carriers; small tags and cut ends) AAIGSCSKEYRVLLGQLQKATDLMQDTSRLLDPYIRIQGLDVPKLREHCRERPGAFPSEETLRGLGRRGFLQTLNATLGCVLHRLADLEQRLPKAQDLERSGLNIEDLEKLQMARPNILGLRNNIYCMAQLLDNSDTAEPTKAGRGASQPPTPTPASDAFQRKLEGCRFLHGYHRFMHSVGRVFSKWGESPNRSRR | substantial decrease | 66±2.3 | – | – | less effective at driving sPAP production; also recorded: didn't drive sPAP at all | NONE |
| (6) L13A: OSM-GST fusion, alanine for Leu 13 (protein) AAIGSCSKEYRVALGQLQKQTDLMQDTSRLLDPYIRIQGLDVPKLREHCRERPGAFPSEETLRGLGRRGFLQTLNATLGCVLHRLADLEQRLPKAQDLERSGLNIEDLEKLQMARPNILGLRNNIYCMAQLLDNSDTAEPTKAGRGASQPPTPTPASDAFQRKLEGCRFLHGYHRFMHSVGRVFSKWGESPNRSRR | substantial decrease | – | 0.0657 | 0.0549 | – | LESS (>120% Less potent than wild type) |
| (9) Q16A: OSM-GST fusion, alanine for Gln 16 (protein, left off: a dimerising Fc or GST; large carriers; small tags and cut ends) AAIGSCSKEYRVLLGALQKQTDLMQDTSRLLDPYIRIQGLDVPKLREHCRERPGAFPSEETLRGLGRRGFLQTLNATLGCVLHRLADLEQRLPKAQDLERSGLNIEDLEKLQMARPNILGLRNNIYCMAQLLDNSDTAEPTKAGRGASQPPTPTPASDAFQRKLEGCRFLHGYHRFMHSVGRVFSKWGESPNRSRR | substantial decrease | 15±8 | – | – | less effective at driving sPAP production; also recorded: didn't drive sPAP at all | NONE |
